Here are results for three variants from IntAct's records for PubMed 10446210.

B1: "Na(+)/H(+) exchange regulatory cofactor NHE-RF1" (Oryctolagus cuniculus (Rabbit)), Q28619 (parent)
chain: MSADAAAGAPLPRLCCLEKGPNGYGFHLHGEKGKVGQYIRLVEPGSPAEKAGLLAGDRLVEVNGENVEKETHQQVVSRIRAALNAVRLLVVDPDTDEQFRKLGVQIRGELLRAQAGPEQAGPPAAPGEQGPAGENEPREVEKSHPERRELRPRLCAMKKGPNGYGFNLHSDKSRPGQFIRAVDPDSPAEASGLREQDRIVEVNGVCVEGKQHGDVVTAIKAGGDEAKLLVVDKETDEFFKKCKVVPSSEHLNGPLPEPFTNGEIQKNNPETLAPAASESPRPALARSASSDTSEELASQDSPKKEDSTAPSSTSSSSDPILDFSISLAVAKERAHQKRSSRRAPQMDWSEKKELFSNL

In the first experiment the parent is B1. Particulars: with Grk6, O70293-1.
Chain of Grk6, O70293-1 (O70293 whole entry): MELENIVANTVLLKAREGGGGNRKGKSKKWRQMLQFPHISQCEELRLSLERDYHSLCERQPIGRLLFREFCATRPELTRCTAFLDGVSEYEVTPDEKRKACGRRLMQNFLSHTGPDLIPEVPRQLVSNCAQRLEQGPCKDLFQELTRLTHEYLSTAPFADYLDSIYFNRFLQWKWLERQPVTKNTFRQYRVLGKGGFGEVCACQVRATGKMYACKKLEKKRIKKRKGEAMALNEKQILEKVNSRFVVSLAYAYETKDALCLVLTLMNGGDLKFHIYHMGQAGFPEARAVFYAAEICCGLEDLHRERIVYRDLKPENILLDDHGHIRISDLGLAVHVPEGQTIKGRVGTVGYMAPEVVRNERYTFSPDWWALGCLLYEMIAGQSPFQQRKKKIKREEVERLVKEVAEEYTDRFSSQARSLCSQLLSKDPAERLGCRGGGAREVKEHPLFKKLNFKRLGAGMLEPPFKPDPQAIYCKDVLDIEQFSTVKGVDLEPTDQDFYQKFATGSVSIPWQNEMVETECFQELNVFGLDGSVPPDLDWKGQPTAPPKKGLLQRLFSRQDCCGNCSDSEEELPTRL
On to MSADAAAGAPLPRLCCLEKGPNGYGFHLHGEKGKVGQYIRLVEPGSPAEKAGLLAGDRLVEVNGENVEKETHQQVVSRIRAALNAVRLLVVDPDTDEQFRKLGVQIRGELLRAQAGPEQAGPPAAPGEQGPAGENEPREVEKSHPERRELRPRLCAMAKGPNGYGFNLHSDKSRPGQFIRAVDPDSPAEASGLREQDRIVEVNGVCVEGKQHGDVVTAIKAGGDEAKLLVVDKETDEFFKKCKVVPSSEHLNGPLPEPFTNGEIQKNNPETLAPAASESPRPALARSASSDTSEELASQDSPKKEDSTAPSSTSSSSDPILDFSISLAVAKERAHQKRSSRRAPQMDWSEKKELFSNL [K158A], for which the “effect of a mutation on the interaction” value is “decreasing interaction”.
For the variant MSADAAAGAPLPRLCCLEKGPNGYGFHLHGEKGKVGQYIRLVEPGSPAEKAGLLAGDRLVEVNGENVEKETHQQVVSRIRAALNAVRLLVVDPDTDEQFRKLGVQIRGELLRAQAGPEQAGPPAAPGEQGPAGENEPREVEKSHPERRELRPRLCAMKAGPNGYGFNLHSDKSRPGQFIRAVDPDSPAEASGLREQDRIVEVNGVCVEGKQHGDVVTAIKAGGDEAKLLVVDKETDEFFKKCKVVPSSEHLNGPLPEPFTNGEIQKNNPETLAPAASESPRPALARSASSDTSEELASQDSPKKEDSTAPSSTSSSSDPILDFSISLAVAKERAHQKRSSRRAPQMDWSEKKELFSNL [K159A], the “effect of a mutation on the interaction” value is “decreasing interaction”.

Variants of B1 are the subject of a further experiment. The settings on record: with Grk6, O70293-1. The source holds these as a separate data set.
Consider MSADAAAGAPLPRLCCLEKGPNGYGFHLHGEKGKVGQYIRLVEPGSPAEKAGLLAGDRLVEVNGENVEKETHQQVVSRIRAALNAVRLLVVDPDTDEQFRKLGVQIRGELLRAQAGPEQAGPPAAPGEQGPAGENEPREVEKSHPERRELRPRLCAMKKGPNGYGFNLHSDKSRPGQFIRAVDPDSPAEASGLREQDRIVEVNGVCVEGKQHGDVVTAIKAGGDEAKLLVVDKETDEFFKKCKVVPSSEHLNGPLPEPFTNGEIQKNNPETLAPAASESPRPALARSAASDTSEELASQDSPKKEDSTAPSSTSSSSDPILDFSISLAVAKERAHQKRSSRRAPQMDWSEKKELFSNL [S289A], for which the “effect of a mutation on the interaction” value is listed as “disrupting interaction”.
